Sequences and labels used below:
B1: PACT-Ext-D3 (PACT residues 208-313, dsRBD 3 with the conserved N-terminal extension), wild type [human] / itself (parent)
chain: GHSLGCTWHSLRNSPGEKINLLKRSLLSIPNTDYIQLLSEIAKEQGFNITYLDIDELSANGQYQCLAELSTSPITVCHGSGISCGNAQSDAAHNALQYLKIIAERK
B2: Loqs-D3 (Loquacious residues 392-463, dsRBD 3), wild type [Drosophila] / itself (parent)
chain: IDYIKLLGEIATENQFEVTYVDIEEKTFSGQFQCLVQLSTLPVGVCHGSGPTAADAQRHAAQNALEYLKIMT
B3: PACT-D3 (PACT residues 239-313, core dsRBD 3), wild type [human] / itself (parent)
chain: TDYIQLLSEIAKEQGFNITYLDIDELSANGQYQCLAELSTSPITVCHGSGISCGNAQSDAAHNALQYLKIIAERK

The first experiment covers variants of B1. As to the kind of experiment: SEC-MALLS. The following applies: with itself.
For chain 1 L66R, the screen value amounted to 12.3 kDa.

Another experiment covers variants of B2. Kind of experiment: SEC-MALLS. Particulars: with itself.
Turning to chain 1 L35R, the screen value was found to be 8 kDa.

Variants of B3 are the subject of the next experiment. Kind of experiment: SEC-MALLS. The following applies: with itself.
Regarding chain 1 L35R, the screen value was found to be 8.8 kDa.

These data come from PMC5716075, “Conserved asymmetry underpins homodimerization of Dicer-associated double-stranded RNA-binding proteins” (Nucleic Acids Research, 2017).
